From patent EP4361176A1 (CHUGAI SEIYAKU KABUSHIKI KAISHA, dated 2024) come the findings set out here.

The target of assay [1] is T1, human FcγRIIb extracellular domain (human, UniProt P31994 43-217).
T1 construct: extracellular domain; Made by the method of WO2014104165; also called hFcγR IIb; FcyRIIb
T1 sequence (looked up): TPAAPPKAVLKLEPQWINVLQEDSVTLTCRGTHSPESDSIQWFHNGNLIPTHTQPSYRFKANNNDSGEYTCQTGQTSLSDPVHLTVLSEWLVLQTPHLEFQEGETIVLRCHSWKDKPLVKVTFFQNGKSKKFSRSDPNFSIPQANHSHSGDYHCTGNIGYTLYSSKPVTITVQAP
Kind of assay: SPR (Biacore 8K+), captured antibody, steady state affinity model.

In assay [2] the target is T1, human FcγRIIb extracellular domain. Kind of assay: SPR; KD of G1d divided by KD of this antibody.
Assay [3] concerns the target T2, human FcγRIIa H extracellular domain (human, UniProt P12318 34-217).
T2 construct: extracellular domain; Made by the method of WO2014104165; also called hFcγR IIa H; FcyRIIaH
T2 sequence (looked up): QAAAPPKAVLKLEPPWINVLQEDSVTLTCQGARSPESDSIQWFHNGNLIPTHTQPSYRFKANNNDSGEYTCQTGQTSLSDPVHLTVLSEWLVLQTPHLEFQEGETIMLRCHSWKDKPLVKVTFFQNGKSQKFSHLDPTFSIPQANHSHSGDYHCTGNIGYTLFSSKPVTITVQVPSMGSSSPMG
Kind of assay: SPR; KD of G1d divided by KD of this antibody.

For assay [4], the target named is T2, human FcγRIIa H extracellular domain. Kind of assay: SPR (Biacore 8K+), captured antibody, 1:1 Langmuir model.
For another assay, the target named is T3, mCTLA4-His (mouse, UniProt P09793 36-161).
T3 construct: Mouse CTLA4 extracellular region linked with a His-tag; also called mouse CTLA4; Mouse CTLA4
Kind of assay: SPR Biacore T200, 100 uM ATP.

The target in assay [5] is T4, human CTLA4 (hCTLA4-His-BAP: human CTLA4 extracellular region with C-terminal His-tag and BAP-tag) (human).
T4 construct: This tie is an inference
Kind of assay: SPR (Biacore T200, 37C), antibody captured, human CTLA4 at 1000 nM, ATP 1 uM.

In assay [6] the target is T4, human CTLA4 (hCTLA4-His-BAP: human …). Kind of assay: SPR (Biacore T200, 37C), antibody captured, human CTLA4 at 1000 nM, ATP 100 uM.
Assay [7] has the same target. Kind of assay: SPR (Biacore T200, 37C), antibody captured, human CTLA4 at 1000 nM, ATP 10 uM.
The target is the same in assay [8]. Kind of assay: SPR (Biacore T200, 37C), antibody captured, human CTLA4 at 1000 nM, no ATP.

B1: H240-G1d/L73-k_glycomab (antibody)
chain 1: not shown
chain 2: DIQMTQSPSSLSASVGDRVTITCRASQDIHKYIAWYQQKPGQAPRLLIQYTSTLQPGVPSRFSGSGSGTDYTFTISSLQPEDIATYYCLQYEQLRTFGGGTKVEIK
modifications: fucose-deficient (afucosylated) Fc sugar chain
As for B1, the Kd in [1] came out at 5.65 µM; in [4] it was 0.999 µM. Moreover, the “Relative value to KD between G1d and hFcgRs” value stood at 1.8 in assay [2] and 1.1 in assay [3].

B2: 04H1208-G1m/04L1407-k0MT (antibody, human IgG1, kappa, V domains shown)
VH: EVQLVESGGGLVKPGGSLRLSCAASGFTFSSKTMNWVRQAPGKGLEWVSSISTRSGYIYYARSVKGRFTISRDNAKNSLYLQMNSLRAEDTAVYYCARYGKREDMLWVFDYWGQGTLVTVSS
VL: DIVMTQSPLSLPVTPGEPASISCDGPSTDVGDYNWVHWYQQKPGQAPRLLIYYTSSKPEGVPDRFSGSGSGTDFTLKISRVEAEDVGVYYCQTYAAPLGPTFGQGTKLEIKR
For B2, the “fold weaker binding to mouse CTLA4 than to human CTLA4” value in the assay with mCTLA4-His is roughly 2 fold.

B3: 04H1389-G1m/04L1305-k0MT (antibody, human IgG1, kappa)
heavy: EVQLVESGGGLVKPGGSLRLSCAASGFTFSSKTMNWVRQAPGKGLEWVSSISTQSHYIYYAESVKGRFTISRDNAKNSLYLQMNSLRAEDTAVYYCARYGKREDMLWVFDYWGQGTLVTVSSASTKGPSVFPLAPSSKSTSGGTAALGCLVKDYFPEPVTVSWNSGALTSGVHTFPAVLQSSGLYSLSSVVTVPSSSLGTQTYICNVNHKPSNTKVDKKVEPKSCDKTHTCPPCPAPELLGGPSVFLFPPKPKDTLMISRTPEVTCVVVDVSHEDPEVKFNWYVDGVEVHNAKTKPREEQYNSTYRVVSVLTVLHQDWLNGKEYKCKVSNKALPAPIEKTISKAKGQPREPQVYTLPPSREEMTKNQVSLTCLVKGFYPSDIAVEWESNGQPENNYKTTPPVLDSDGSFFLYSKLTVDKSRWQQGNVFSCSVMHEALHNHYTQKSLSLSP
light: DIVMTQSPLSLPVTPGEPASISCDGPSTGVGDYNYVHWYQQKPGQAPRLLIYFTSKKPSGVPDRFSGSGSGTDFTLKISRVEAEDVGVYYCQTYAAPLGPMFGQGTKLEIKRTVAAPSVFIFPPSDEQLKSGTASVVCLLNNFYPREAKVQWKVDNALQSGNSQESVTEQDSKDSTYSLSSTLTLSKADYEKHKVYACEVTHQGLSSPVTKSFNRGEC
notes: Human IgG1 (G1m), human kappa
For B3, the “Binding to Human CTLA4 (binding amount per unit amount of antibody)” value amounted to 0.12 in assay [5], 0.151 in assay [6], 0.154 in [7] and 0.03 in assay [8].
